Positions count from the first letter of the chain named. Names and notes keep the numbering of the source.
How the values were obtained:
[1] = target: the molecule itself; test: crystal structure; selenomethionine-labelled methylated protein; 0.05 M bicine pH 9.1, 28% PEG 3350; SAD, 2.8 Å; four monomers in the asymmetric unit; interface analysed with PDBePISA
[2] = target: the molecule itself; test: SEC; calibrated gel filtration, HiLoad 26/600 Superdex 200, 20 mM Tris/HCl pH 7.5, 1 M NaCl; calibrated with Bio-Rad standards

B1: selenomethionine-labelled methylated SsoCas6 (enzyme, Sulfolobus solfataricus)
chain: PLIFKIGYNVIPLQDVILPTPSSKVLKYLIQSGKLLPSLNNLITSRDKYKPIFISHLGLNQRRIFQTNGNLKTISRGSKLSSTIAFSTQVNVLPELDEGVFETIYGKFHITIESVEIVEVEKLKEEVEKHMNDNIRVRFISPTLLSSKVLLPPSLSERYKRVNAGYSTLPSVGLIVAYAYNVYCNLIGKKEVEVRAFKFGVISNALSRIIGYDLHPVTIVIGEDSKGNLRKARGVMGWIEFDIPDEKLKRRALRYLLASSYLGIGRSRGIGFGEIKLEFIKREENH
modifications: (L)-selenomethionine derivative; surface lysine residues reductively methylated
notes: Cas6 paralogue Sso1437 of Sulfolobus solfataricus; residues 43-50 and 90-93 disordered in the crystal; Same construct as m1, labelled with selenomethionine and methylated for crystallography; also called (L)-selenomethionine derivative of SsoCas6; not shown: His6, N-terminal, cleaved
binding result [1]: binds

B2: Sulfolobus solfataricus Cas6 (Sso1437), wild type (enzyme)
chain: B1 chain
notes: Cas6 paralogue Sso1437 of Sulfolobus solfataricus, gene amplified by PCR from genomic DNA; expected molecular mass of the monomer 33 kDa; Cloned into pET151-TOPO; also called SsoCas6; wild-type (WT) enzyme; source: E. coli C43(DE3), purified (Ni-NTA, TEV cleavage, Superdex 75 gel filtration); not shown: His6, N-terminal, cleaved
stoichiometry N [2]: 2

B3: SsoCas6 K28H variant (enzyme, Sulfolobus solfataricus)
chain: B1 chain with K27H
notes: Cas6 paralogue Sso1437 of Sulfolobus solfataricus with K28H; Used in the calibrated gel filtration in place of the wild type; source: E. coli, purified according to the same protocol as the wild type; not shown: His6, N-terminal, cleaved
stoichiometry N [2]: 2

— article PMC3652601, “Structure of a dimeric crenarchaeal Cas6 enzyme with an atypical active site for CRISPR RNA processing” (Biochemical Journal, 2013)
